B1: HPV58 L1 pentamer R161A (natural protein)
chain: EATVYLPPVPVSKVVSTDEYVSRTSIYYYAGSSRLLAVGNPYFSIKSPNNNKKVLVPKVSGLQYRVFRVRLPDPNKFGFPDTSFYNPDTQRLVWACVGLEIGRGQPLGVGVSGHPYLNKFDDTETSNAYPAQPGSDNRECLSMDYKQTQLCLIGCKPPTGEHWGKGVACNNNAAATDCPPLELFNSIIEDGDMVDTGFGCMDFGTLQANKSDVPIDICNSTCKYPDYLKMASEPYGDSLFFFLRREQMFVRHFFNRAGKLGEAVPDDLYIKGSGNTAVIQSSAFFPTPSGSIVTSESQLFNKPYWLQRAQGHNNGICWGNQLFVTVVDTTRSTNMTLCTEVTKEGTYKNDNFKEYVRHVEEYDLQFVFQLCKITLTAEIMTYIHTMDSNILEDWQFGLTPPPSASLQDTYRFVTSQAITCQKTAPPKEKEDPLNKYTFWEVNLKEKFSADLDQFPLGRKFLLQSGLKAKPRLKRSAPTTRAPSTKRKKVKK
B2: HPV58 L1 pentamer N170A (natural protein)
chain: EATVYLPPVPVSKVVSTDEYVSRTSIYYYAGSSRLLAVGNPYFSIKSPNNNKKVLVPKVSGLQYRVFRVRLPDPNKFGFPDTSFYNPDTQRLVWACVGLEIGRGQPLGVGVSGHPYLNKFDDTETSNRYPAQPGSDARECLSMDYKQTQLCLIGCKPPTGEHWGKGVACNNNAAATDCPPLELFNSIIEDGDMVDTGFGCMDFGTLQANKSDVPIDICNSTCKYPDYLKMASEPYGDSLFFFLRREQMFVRHFFNRAGKLGEAVPDDLYIKGSGNTAVIQSSAFFPTPSGSIVTSESQLFNKPYWLQRAQGHNNGICWGNQLFVTVVDTTRSTNMTLCTEVTKEGTYKNDNFKEYVRHVEEYDLQFVFQLCKITLTAEIMTYIHTMDSNILEDWQFGLTPPPSASLQDTYRFVTSQAITCQKTAPPKEKEDPLNKYTFWEVNLKEKFSADLDQFPLGRKFLLQSGLKAKPRLKRSAPTTRAPSTKRKKVKK
B3: HPV58 L1 pentamer D154A (natural protein)
chain: EATVYLPPVPVSKVVSTDEYVSRTSIYYYAGSSRLLAVGNPYFSIKSPNNNKKVLVPKVSGLQYRVFRVRLPDPNKFGFPDTSFYNPDTQRLVWACVGLEIGRGQPLGVGVSGHPYLNKFADTETSNRYPAQPGSDNRECLSMDYKQTQLCLIGCKPPTGEHWGKGVACNNNAAATDCPPLELFNSIIEDGDMVDTGFGCMDFGTLQANKSDVPIDICNSTCKYPDYLKMASEPYGDSLFFFLRREQMFVRHFFNRAGKLGEAVPDDLYIKGSGNTAVIQSSAFFPTPSGSIVTSESQLFNKPYWLQRAQGHNNGICWGNQLFVTVVDTTRSTNMTLCTEVTKEGTYKNDNFKEYVRHVEEYDLQFVFQLCKITLTAEIMTYIHTMDSNILEDWQFGLTPPPSASLQDTYRFVTSQAITCQKTAPPKEKEDPLNKYTFWEVNLKEKFSADLDQFPLGRKFLLQSGLKAKPRLKRSAPTTRAPSTKRKKVKK
B4: HPV58 L1 pentamer S168A (natural protein)
chain: EATVYLPPVPVSKVVSTDEYVSRTSIYYYAGSSRLLAVGNPYFSIKSPNNNKKVLVPKVSGLQYRVFRVRLPDPNKFGFPDTSFYNPDTQRLVWACVGLEIGRGQPLGVGVSGHPYLNKFDDTETSNRYPAQPGADNRECLSMDYKQTQLCLIGCKPPTGEHWGKGVACNNNAAATDCPPLELFNSIIEDGDMVDTGFGCMDFGTLQANKSDVPIDICNSTCKYPDYLKMASEPYGDSLFFFLRREQMFVRHFFNRAGKLGEAVPDDLYIKGSGNTAVIQSSAFFPTPSGSIVTSESQLFNKPYWLQRAQGHNNGICWGNQLFVTVVDTTRSTNMTLCTEVTKEGTYKNDNFKEYVRHVEEYDLQFVFQLCKITLTAEIMTYIHTMDSNILEDWQFGLTPPPSASLQDTYRFVTSQAITCQKTAPPKEKEDPLNKYTFWEVNLKEKFSADLDQFPLGRKFLLQSGLKAKPRLKRSAPTTRAPSTKRKKVKK
B5: HPV58 L1 pentamer Q165A (natural protein)
chain: EATVYLPPVPVSKVVSTDEYVSRTSIYYYAGSSRLLAVGNPYFSIKSPNNNKKVLVPKVSGLQYRVFRVRLPDPNKFGFPDTSFYNPDTQRLVWACVGLEIGRGQPLGVGVSGHPYLNKFDDTETSNRYPAAPGSDNRECLSMDYKQTQLCLIGCKPPTGEHWGKGVACNNNAAATDCPPLELFNSIIEDGDMVDTGFGCMDFGTLQANKSDVPIDICNSTCKYPDYLKMASEPYGDSLFFFLRREQMFVRHFFNRAGKLGEAVPDDLYIKGSGNTAVIQSSAFFPTPSGSIVTSESQLFNKPYWLQRAQGHNNGICWGNQLFVTVVDTTRSTNMTLCTEVTKEGTYKNDNFKEYVRHVEEYDLQFVFQLCKITLTAEIMTYIHTMDSNILEDWQFGLTPPPSASLQDTYRFVTSQAITCQKTAPPKEKEDPLNKYTFWEVNLKEKFSADLDQFPLGRKFLLQSGLKAKPRLKRSAPTTRAPSTKRKKVKK
B6: HPV58 L1 pentamer N308A (natural protein)
chain: EATVYLPPVPVSKVVSTDEYVSRTSIYYYAGSSRLLAVGNPYFSIKSPNNNKKVLVPKVSGLQYRVFRVRLPDPNKFGFPDTSFYNPDTQRLVWACVGLEIGRGQPLGVGVSGHPYLNKFDDTETSNRYPAQPGSDNRECLSMDYKQTQLCLIGCKPPTGEHWGKGVACNNNAAATDCPPLELFNSIIEDGDMVDTGFGCMDFGTLQANKSDVPIDICNSTCKYPDYLKMASEPYGDSLFFFLRREQMFVRHFFNRAGKLGEAVPDDLYIKGSGATAVIQSSAFFPTPSGSIVTSESQLFNKPYWLQRAQGHNNGICWGNQLFVTVVDTTRSTNMTLCTEVTKEGTYKNDNFKEYVRHVEEYDLQFVFQLCKITLTAEIMTYIHTMDSNILEDWQFGLTPPPSASLQDTYRFVTSQAITCQKTAPPKEKEDPLNKYTFWEVNLKEKFSADLDQFPLGRKFLLQSGLKAKPRLKRSAPTTRAPSTKRKKVKK

Sequence of MAb A12A3 (mouse) (heavy, as listed by the source, chain 1 of 2): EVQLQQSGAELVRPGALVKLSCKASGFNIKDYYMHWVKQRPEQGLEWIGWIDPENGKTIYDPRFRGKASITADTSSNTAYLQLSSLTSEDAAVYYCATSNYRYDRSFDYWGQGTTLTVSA
Sequence of MAb A12A3 (mouse) (light, as listed by the source, chain 2 of 2): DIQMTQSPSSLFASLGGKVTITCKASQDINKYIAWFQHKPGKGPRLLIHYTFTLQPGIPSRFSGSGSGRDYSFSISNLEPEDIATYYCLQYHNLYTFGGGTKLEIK

This test concerns the target MAb A12A3 (mouse). Briefly: SPR; Biacore 3000; MAb (10 ug/ml) captured on a CM-5 chip amine coupled with goat anti-mouse Fc fragment; serially diluted pentamer injected at 30 ul/min for 3.3 min; HBS (10 mM HEPES pH 7.4, 150 mM NaCl); three measurements, mean and standard deviation. A general note: SPR reads the build-up and loss of mass on a sensor chip optically.
B1: the Ka was 994000 M⁻¹, the Kd was found to be 1120 nM, the koff is 9.98e-06 s⁻¹ and the kon came out at 10.1 M⁻¹ s⁻¹.
In the case of B2, the Ka was 1.53e+08 M⁻¹, the Kd was determined as 6.52 nM, the koff was found to be 0.000644 s⁻¹ and the kon came to 98400 M⁻¹ s⁻¹.
With B3, the Ka was determined as 4.18e+06 M⁻¹, the Kd amounted to 240 nM, the koff turned out to be 0.102 s⁻¹ and the kon worked out at 426000 M⁻¹ s⁻¹.
For B4, the Ka came out at 1.62e+08 M⁻¹, the Kd was 6.28 nM, the koff was 0.000522 s⁻¹ and the kon worked out at 54300 M⁻¹ s⁻¹.
For B5, in that order: 7.28e+07 M⁻¹, 13.8 nM, 0.00228 s⁻¹ and 167000 M⁻¹ s⁻¹.
The matching figures for B6: 8.99e+06 M⁻¹, 112 nM, 0.0272 s⁻¹ and 243000 M⁻¹ s⁻¹.

Usually Kd stands for the equilibrium constant for the complex coming apart. Higher therefore signals lower affinity. Broadly, the koff is the rate constant with which the complex falls apart. The low end stands for slow dissociation, the high end for fast dissociation. As usually defined, the kon is the second-order rate constant of association. High values mean fast association, low ones slow association.

Values taken from article PMC5615192 (mBio, 2017).
